Substrate: CC(=O)N[C@H]1[C@H](Oc2ccc([N+](=O)[O-])cc2)O[C@H](CO)[C@@H](O)[C@@H]1O
Assay: purified protein
Conditions: pH 5.5, 30 °C

B1: OfHex2 (Ostrinia furnacalis) (protein)
chain: IYNNNPGPKYPPTKGEVWPKPQYQKLERYYFTVNTSAFKIKATNHTCPILAKAIERYSFIMRNTFNLDLNRKPKTSRHRLPRETNSEDPYYQGLLKELDIELISPCEEYPYFNMDESYELTISTTAKLLSSSIWGILRGLESWSHLLYLTDDKDGVSIDICVNRTHIADFPRYAHRGLLLDTGRHFISMSNILKTLDAMAMNKLNVFHWHIVDDQSFPYQSEKFPDLSGKGAFDPSLVYTKDDIARVVQYATERGIRVLPEFDVPGHTRSWGEAFPNVLTECFSDGKVVGVGPMNPTVNTTYKLFQELMEEVQEWFPDKYFHIGGDEVQFDCWESNPDLQQYMKDHHMTATQLHALFMKNVIPLLGNNTKPIVWQEVFDVGVPLSSDTIIHVWKNGWVEEMVKILKAGHRLIFSASWYLDHLKTGGDWEDMYMADPRLMVNLVDDTAPLDNIVGGEACMWGEVVDDTNVINRVWPRTSAAAERLWSAGLASNSLERNVRLSILDKARHRIEEHACRMRRRAINAQPPNGPGFCVGAKLF
Protein B1 has a Km of 463 ± 27 µM, a kcat of 151 ± 6.21 s⁻¹ and a kcat/Km of 326000 M⁻¹ s⁻¹.
